Assay results as given in FireProtDB.

B1: Ribonuclease HI, P0A7Y4 (parent)
chain: MLKQVEIFTDGSCLGNPGPGGYGAILRYRGREKTFSAGYTRTTNNRMELMAAIVALEALKEHCEVILSTDSQYVRQGITQWIHNWKKRGWKTADKKPVKNVDLWQRLDAALGQHQIKWEWVKGHAGHPENERCDELARAAAMNPTLEDTGYQVEV

Variants of: B1
Details: Escherichia coli (strain K12); pH 3; 49.8 °C; Thermal; CD; glycine-HCl 10 mM; reversible: yes; structure 2RN2; whole UniProt chain shown

Variant | ddG of mutation (higher = less stable) [kcal/mol]
D94R K95G | -1.1
Q113P | 0.2
K91R D94E K95G | -1.2
A125T | -0.1
K91R K95G | -1.6
H62P | -1
Y28F R29H G30A R31H | 0.7

Same assay, conditions: Escherichia coli (strain K12); pH 3; Thermal; CD; glycine-HCl 10 mM; reversible: yes; structure 2RN2; whole UniProt chain shown

Variant | Tm [°C] | change of melting temperature, mutant - wild type (higher = more stable) [°C] | unfolding enthalpy (van 't Hoff) [kcal/mol]
D94R K95G | 53.4 | 3.6 | 127
Q113P | 49.2 | -0.6 | 100
D94E | 49.8 | -1.2 | 95.9
K91R D94E K95G | 53.8 | 4 | 105
A125T | 50.2 | 0.4 | 96.4
K91R K95G | 55 | 5.2 | 114
H62P | 53.2 | 3.4 | 110
Y28F R29H G30A R31H | 47.5 | -2.3 | 92.5

Same assay, conditions: Escherichia coli (strain K12); pH 5.5; 49.8 °C; Thermal; CD; glycine-HCl 10 mM; reversible: yes; structure 2RN2; whole UniProt chain shown

Variant | ddG of mutation (higher = less stable) [kcal/mol]
D94R K95G | -1.5

Same assay, conditions: Escherichia coli (strain K12); pH 5.5; Thermal; CD; glycine-HCl 10 mM; reversible: yes; structure 2RN2; whole UniProt chain shown

Variant | Tm [°C] | change of melting temperature, mutant - wild type (higher = more stable) [°C] | unfolding enthalpy (van 't Hoff) [kcal/mol]
D94R K95G | 57.5 | 5.5 | 102
K91R D94E K95G | 57.6 | 5.6 | 86.8
A125T | 52 | 0 | 88.8
K91R K95G | 57.8 | 5.8 | 92
Y28F R29H G30A R31H | 48.8 | -3.2 | 80.5

Same assay, conditions: Escherichia coli (strain K12); pH 5.5; 52 °C; Thermal; CD; Sodium acetate 20 mM; reversible: yes; structure 2RN2; whole UniProt chain shown

Variant | ddG of mutation (higher = less stable) [kcal/mol]
Q113P | 0.6
H62P | -1.1

Same assay, conditions: Escherichia coli (strain K12); pH 5.5; Thermal; CD; Sodium acetate 20 mM; reversible: yes; structure 2RN2; whole UniProt chain shown

Variant | Tm [°C] | change of melting temperature, mutant - wild type (higher = more stable) [°C] | unfolding enthalpy (van 't Hoff) [kcal/mol]
Q113P | 49.9 | -2.1 | 81
D94E | 52 | -1.6 | 92.9
H62P | 56.1 | 4.1 | 102

Same assay, conditions: Escherichia coli (strain K12); pH 5.5; 49.8 °C; Thermal; CD; Sodium acetate 20 mM; reversible: yes; structure 2RN2; whole UniProt chain shown

Variant | ddG of mutation (higher = less stable) [kcal/mol]
D94E | 0.4

Same assay, conditions: Escherichia coli (strain K12); pH 5.5; 25 °C; GdnHCl; CD; glycine-HCl 10 mM; reversible: yes; structure 2RN2; whole UniProt chain shown

Variant | ddG of mutation (higher = less stable) [kcal/mol] | denaturant m value [kcal/mol/M] | denaturant midpoint (higher = more stable) [M] | unfolding free energy [kcal/mol]
K91R D94E K95G | 0.01 | 4.36 | 2.1 | 9.14

Same assay, conditions: Escherichia coli (strain K12); pH 5.5; 52 °C; Thermal; CD; glycine-HCl 10 mM; reversible: yes; structure 2RN2; whole UniProt chain shown

Variant | ddG of mutation (higher = less stable) [kcal/mol]
K91R D94E K95G | -1.5
A125T | 0
Y28F R29H G30A R31H | 0.9

Same assay, conditions: Escherichia coli (strain K12); pH 3; 50.1 °C; Thermal; CD; glycine-HCl 10 mM; NaCl 0.1 M; reversible: yes; structure 2RN2; whole UniProt chain shown

Variant | ddG of mutation (higher = less stable) [kcal/mol]
H62P T40A K122R | -0.52
A52V | -1.7
H62D | -0.67
H62R | 0.03
H62P | -1
K117R | 0.06

Same assay, conditions: Escherichia coli (strain K12); pH 3; Thermal; CD; glycine-HCl 10 mM; NaCl 0.1 M; reversible: yes; structure 2RN2; whole UniProt chain shown

Variant | Tm [°C] | change of melting temperature, mutant - wild type (higher = more stable) [°C] | unfolding enthalpy (van 't Hoff) [kcal/mol]
H62P T40A K122R | 51.8 | 1.7 | 109
Q80L | 51.1 | 1 | 114
A52V | 55.6 | 5.5 | 128
H62D | 52.3 | 2.2 | 118
H62R | 50 | -0.1 | 114
H62P | 53.5 | 3.4 | 110
K117R | 49.9 | -0.2 | 97.1

Same assay, conditions: Escherichia coli (strain K12); pH 5.5; Thermal; CD; Sodium acetate 20 mM; NaCl 0.1 M; reversible: yes; structure 2RN2; whole UniProt chain shown

Variant | Tm [°C] | change of melting temperature, mutant - wild type (higher = more stable) [°C] | unfolding enthalpy (van 't Hoff) [kcal/mol]
H62P T40A K122R | 55.8 | 3.1 | 96.9
Q80L | 53.5 | 0.8 | 94.6
A52V | 60.5 | 7.8 | 87.5
H62D | 52.1 | -0.6 | 97.8
H62R | 54 | 1.3 | 97.1
H62P | 56.8 | 4.1 | 102

Same assay, conditions: Escherichia coli (strain K12); pH 5.5; 25 °C; Urea; CD; sodium acetate 20 mM; KCl 50 mM; structure 2RN2; whole UniProt chain shown

Variant | ddG of mutation (higher = less stable) [kcal/mol] | denaturant m value [kcal/mol/M] | unfolding free energy [kcal/mol]
I53L | 1.4 | 2.3 | 8.3
I53D | 4.1 | 2 | 5.6
I53F | 3.9 | 2 | 5.8

Same assay, conditions: Escherichia coli (strain K12); pH 5.5; 52.7 °C; Thermal; CD; Sodium acetate 20 mM; NaCl 0.1 M; reversible: yes; structure 2RN2; whole UniProt chain shown

Variant | ddG of mutation (higher = less stable) [kcal/mol]
H62R | -0.36
H62P | -1.1
K117R | -0.03

Same assay, conditions: Escherichia coli (strain K12); pH 5.5; 25 °C; GdnHCl; CD; Sodium acetate 20 mM; reversible: yes; structure 2RN2; whole UniProt chain shown

Variant | ddG of mutation (higher = less stable) [kcal/mol] | denaturant m value [kcal/mol/M] | denaturant midpoint (higher = more stable) [M] | unfolding free energy [kcal/mol]
H62P | -0.74 | 4.98 | 1.98 | 9.89
